Consider one molecule from patent US6693166 (HONG KONG UNIVERSITY OF SCIENCE AND TECHNOLOGY, dated 2004).

This experiment deals with T1, GST-Cdk5.GST-Nck5a complex (Homo sapiens (Human), UniProt Q00535 1-292; Q15078 99-307).
T1 construct: also called Cdk5/Nck5a complex; Cdk5.Nck5a complex
The experiment is described as follows: steady state kinase kinetics with histone H1 peptide as substrate, Dixon plot; noncompetitive with respect to the substrate. The procedure: Peptide Inhibition of Cdk5 and Cdk2 Kinase Activity—Cdk5 kinase activity was assayed essentially as described previously, except that for each Cdk5 kinase reaction 1 µg of GST-Cdk5 was reconstituted with 2 µg of GST-Nck5a, and 1 µg of GST-Cdk2 was mixed with 3 µg of cyclin A-H6 in Cdk2 assays. The reconstituted complexes were added, in duplicate, to an assay mixture containing 30 mM MOPS, pH 7.4, 10 mM MgCl_2, 40 µM of the histone H1 peptide, 50 µM [γ-^32P]ATP, and various concentrations of various peptides at 30° C. for 30 min before measuring the Cdk5 and Cdk2 kinase activities.
Steady State Kinetic Experiments—All assay conditions were the same as in the inhibition assay described above, except that the reaction time was kept at 15 min so that the product formed was less than 5% of the total substrate concentration used. To determine suitable concentrations of the substrate and the inhibitor for the steady state kinetic experiments, the K_m value of GST-Cdk5.GST-Nck5a complex and a concentration-dependent inhibition profile of the enzyme by the α_N peptide were determined. […]
Kinetic Analysis of Cdk5 Inhibition by the α_N Peptide—We also analyzed the kinetic properties of the α_N peptide with respect to the kinase substrate, the histone H1 peptide.

B1: synthetic 28-residue Nck5a peptide corresponding to Ala146 to Asp173 of Nck5a (peptide)
peptide: ASTSELLRCLGEFLCRRCYRLKHLSPTD
notes: Chemically synthesised (Fmoc), purity above 95%; Gln145 of the recombinant 29-residue fragment was left out; also called αN peptide
Take B1: the Ki (as a rule, the dissociation constant of the complex between target and ligand, obtained from inhibition or displacement) is roughly 25 µM.
